The EC50 is the concentration at which the effect is half-maximal.

The assay addresses T1, spike-RBD-mFC (sino biologicals) (SARS-COV-2, UniProt P0DTC2 319-541).
T1 construct: domain: RBD; also called spike protein in SARS-COV-2
Description: ELISA, spike-RBD-mFC coated, anti-human kappa light chain-peroxidase detection. For orientation: In an ELISA, binding on a coated surface is turned into a signal by an enzyme label.

B1: antibody 9 (antibody, V domains shown)
VH: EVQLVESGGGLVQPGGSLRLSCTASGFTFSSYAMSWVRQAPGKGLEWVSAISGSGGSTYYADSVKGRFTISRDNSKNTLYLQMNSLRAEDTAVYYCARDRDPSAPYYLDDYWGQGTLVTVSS
VL: DIQMTQSPSSLSASVGDRVTITCRASQGISSYLAWYQQKPGKAPKLLIYAASSLQSGVPSRFSGSGSGTDFTLTISSLQPEDFATYYCQQHYTTPPTFGQGTKVEIKR
Molecule B1 registered an EC50 of 2.76 nM.

The values are drawn from patent publication US20240228592A1 (BIO THERA SOLUTIONS, published 2024).
